Measured values reported in paper PMC10952505.

What was measured:
[1] = target: HA-rat μ opioid receptor (rat) (UniProt P33535)
[2] = target: endogenous μ opioid receptor of rat locus coeruleus neurones (rat (endogenous in locus coeruleus neurones)) (UniProt P33535)
[3] = target: human μ opioid receptor-Renilla luciferase II (human) (UniProt P35372)
[4] = target: HA-rat μ opioid receptor (rat) (UniProt P33535); remark: listed apart in the source
[5] = target: human μ opioid receptor-Renilla luciferase II (human) (UniProt P35372); remark: listed apart in the source

UniProt P35372, sequence (P35372 whole entry): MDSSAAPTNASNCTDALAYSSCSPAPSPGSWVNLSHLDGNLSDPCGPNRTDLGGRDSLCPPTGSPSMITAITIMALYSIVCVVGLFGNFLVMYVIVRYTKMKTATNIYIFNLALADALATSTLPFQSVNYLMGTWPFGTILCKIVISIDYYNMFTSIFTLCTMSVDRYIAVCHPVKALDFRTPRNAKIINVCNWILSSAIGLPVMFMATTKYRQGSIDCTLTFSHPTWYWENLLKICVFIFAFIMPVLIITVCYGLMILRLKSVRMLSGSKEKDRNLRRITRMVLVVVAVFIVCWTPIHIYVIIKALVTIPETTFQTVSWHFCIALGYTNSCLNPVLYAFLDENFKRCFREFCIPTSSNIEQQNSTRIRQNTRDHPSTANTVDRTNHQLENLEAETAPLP

DAMGO ([D-Ala^2, N-MePhe^4, Gly-ol]-enkephalin) (peptide)
G protein activation BRET (Gαi1-RlucII / GFP10-Gγ2) in HEK293T cells, log EC50 (M) [1]: -6.48 log EC50 (M)
cell surface receptor loss (ELISA of HA-tagged receptor, 1 h agonist) in HEK293T cells, log EC50 (M) [1]: -6.14 log EC50 (M)
opioid-evoked GIRK current in rat locus coeruleus neurones (whole-cell patch clamp), log EC50 (M) [2]: -7.29 log EC50 (M)
β-arrestin 2 recruitment BRET (μ opioid receptor-RlucII / β-arrestin 2-GFP10) in HEK293T cells, log EC50 (M) [3]: -5.7 log EC50 (M)
KA (equilibrium dissociation constant) by Furchgott's method from G protein activation BRET curves with and without β-FNA, whole cells [4]: 5.6 µM
KA (equilibrium dissociation constant) by Furchgott's method from β-arrestin 2 recruitment BRET curves with and without β-FNA, whole cells [5]: 1580 nM
